From publication PMC2756145 come the findings set out here.

Where a chain is given by its changes, count along the chain named.

One data set has as its target T1, Pot1-DBD_L122A (Schizosaccharomyces pombe, UniProt O13988 1-389, L122A).
T1 sequence: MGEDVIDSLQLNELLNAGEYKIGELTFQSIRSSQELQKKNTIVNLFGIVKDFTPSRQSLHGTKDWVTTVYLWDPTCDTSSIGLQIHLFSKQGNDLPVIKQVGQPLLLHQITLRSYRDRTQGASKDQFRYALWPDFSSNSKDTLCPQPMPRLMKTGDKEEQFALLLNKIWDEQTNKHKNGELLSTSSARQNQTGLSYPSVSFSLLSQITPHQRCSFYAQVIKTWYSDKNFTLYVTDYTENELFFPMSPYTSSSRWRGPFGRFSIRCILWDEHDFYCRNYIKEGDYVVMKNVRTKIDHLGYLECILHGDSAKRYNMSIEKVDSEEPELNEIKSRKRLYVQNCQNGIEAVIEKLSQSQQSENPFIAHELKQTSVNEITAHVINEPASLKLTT
Description: filter binding.

In a further data set the target is T2, Pot1-DBD_Y115A (Schizosaccharomyces pombe, UniProt O13988 1-389, Y115A).
T2 sequence: T1 sequence with Y115A, A122L
Description: filter binding.

For another data set, the target named is T3, Pot1-DBD_T62A (Schizosaccharomyces pombe, UniProt O13988 1-389, T62A).
T3 sequence: T1 sequence with T62A, A122L
Briefly: filter binding.

Another data set addresses T4, Pot1-DBD (Schizosaccharomyces pombe, UniProt O13988 1-389).
T4 sequence: T1 sequence with A122L
Briefly: filter binding.

In a further data set the target is T5, Pot1pC (Schizosaccharomyces pombe, UniProt O13988 178-389).
T5 sequence: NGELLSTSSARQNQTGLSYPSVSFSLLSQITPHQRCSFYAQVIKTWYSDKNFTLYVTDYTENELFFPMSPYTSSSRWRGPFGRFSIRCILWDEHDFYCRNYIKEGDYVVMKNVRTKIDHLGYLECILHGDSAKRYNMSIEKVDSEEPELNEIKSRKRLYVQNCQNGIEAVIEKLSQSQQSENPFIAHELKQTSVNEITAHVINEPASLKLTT
Description: EMSA. Background: In EMSA bound probe runs differently from free probe, usually more slowly.

B1: 12mer (ssDNA)
DNA: GGTTACGGTTAC
Consider B1, for which the dissociation constant (Kd) in the data set with Pot1-DBD_L122A is 90 ± 7 nM; with Pot1-DBD_Y115A, 80 ± 4 nM; with Pot1-DBD_T62A, 90 ± 3 nM; with Pot1-DBD, 1 ± 0.1 nM; in the data set with Pot1pC it was 700 ± 200 nM.

What is called Kd is the concentration at which binding is half-saturated. A lower Kd goes with tighter binding.
